Assay [1] concerns the target T1, uS13c, chloroplast ribosomal protein S13 (spinach (Spinacia oleracea) (endogenous …, UniProt P82163 48-172)).
T1 sequence (looked up): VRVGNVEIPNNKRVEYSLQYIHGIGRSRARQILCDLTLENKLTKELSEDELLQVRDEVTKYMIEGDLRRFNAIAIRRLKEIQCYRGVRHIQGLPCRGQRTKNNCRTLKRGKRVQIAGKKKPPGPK
Kind of assay: cryo-EM structure.

Assay [2] concerns the target T2, bS1c, chloroplast ribosomal protein S1 (spinach (Spinacia oleracea) (endogenous …, UniProt P29344 42-411)).
T2 sequence (looked up): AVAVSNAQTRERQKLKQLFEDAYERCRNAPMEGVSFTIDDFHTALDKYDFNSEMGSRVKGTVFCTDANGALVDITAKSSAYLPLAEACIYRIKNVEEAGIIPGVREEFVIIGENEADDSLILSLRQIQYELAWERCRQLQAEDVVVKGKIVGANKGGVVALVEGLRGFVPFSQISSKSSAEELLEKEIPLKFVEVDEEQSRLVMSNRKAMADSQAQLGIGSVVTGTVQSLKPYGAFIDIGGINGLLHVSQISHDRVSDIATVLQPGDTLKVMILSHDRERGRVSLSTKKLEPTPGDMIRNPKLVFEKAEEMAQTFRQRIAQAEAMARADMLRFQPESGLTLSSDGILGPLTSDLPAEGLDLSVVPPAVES
Put plainly: cryo-EM structure.

B1: bTHXc (PSRP4), plastid-specific ribosomal protein of the chloroplast ribosome small subunit (natural protein, UniProt P47910 55-101, looked up)
chain: GRGDRKTAKGKRFNHSFGNARPKNKNKGRGPPKAPIFPKGDPSQKED
For B1, the binding result in assay [1] is given as “binds”.

B2: uS2c, chloroplast ribosomal protein S2 (natural protein, UniProt P08242 1-236, looked up)
chain: MTRRYWNINLEEMMEAGVHFGHGTRKWNPRMSPYISAKCKGIHIINLTRTARFLSEACDLVFDASSRGKQFLIVGTKNKAADSVARAAIRARCHYVNKKWLGGMLTNWSTTETRLHKFRDLRMEQTAGRLARLPKRDAAVVKRQLSHLQTYLGGIKYMTGLPDIVIIVDQQEEYTALRECITLGIPTICLIDTNCNPDLADISIPANDDAIASIRLILTKLVFAICEGRSSYIRNP
With B2, the binding result in assay [2] was “binds”.

The values above are taken from article PMC5737520 (Nucleic Acids Research, 2017).
